One data set concerns the target T1, Arid5a R128A (Mus musculus, UniProt Q3U108 1-590, R128A).
T1 sequence: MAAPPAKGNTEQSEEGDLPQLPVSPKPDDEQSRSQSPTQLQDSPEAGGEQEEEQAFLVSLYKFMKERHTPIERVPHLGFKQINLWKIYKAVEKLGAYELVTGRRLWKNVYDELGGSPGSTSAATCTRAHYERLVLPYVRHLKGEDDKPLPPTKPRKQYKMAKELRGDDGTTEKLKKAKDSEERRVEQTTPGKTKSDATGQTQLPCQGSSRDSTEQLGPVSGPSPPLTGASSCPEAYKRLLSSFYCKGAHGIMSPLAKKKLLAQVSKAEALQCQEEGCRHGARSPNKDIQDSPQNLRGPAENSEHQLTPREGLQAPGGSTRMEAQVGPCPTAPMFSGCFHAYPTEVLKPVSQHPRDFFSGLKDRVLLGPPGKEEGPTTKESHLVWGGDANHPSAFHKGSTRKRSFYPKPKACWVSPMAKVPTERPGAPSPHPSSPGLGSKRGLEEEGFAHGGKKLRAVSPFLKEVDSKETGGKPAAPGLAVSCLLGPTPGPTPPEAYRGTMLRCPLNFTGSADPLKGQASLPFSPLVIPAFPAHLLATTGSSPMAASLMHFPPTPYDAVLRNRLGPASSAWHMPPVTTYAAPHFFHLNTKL
Nature of the data set: EMSA. In general terms: In EMSA bound probe runs differently from free probe, usually more slowly.

The target of the next data set is T2, Arid5a (Mus musculus, UniProt Q3U108 1-590).
T2 sequence: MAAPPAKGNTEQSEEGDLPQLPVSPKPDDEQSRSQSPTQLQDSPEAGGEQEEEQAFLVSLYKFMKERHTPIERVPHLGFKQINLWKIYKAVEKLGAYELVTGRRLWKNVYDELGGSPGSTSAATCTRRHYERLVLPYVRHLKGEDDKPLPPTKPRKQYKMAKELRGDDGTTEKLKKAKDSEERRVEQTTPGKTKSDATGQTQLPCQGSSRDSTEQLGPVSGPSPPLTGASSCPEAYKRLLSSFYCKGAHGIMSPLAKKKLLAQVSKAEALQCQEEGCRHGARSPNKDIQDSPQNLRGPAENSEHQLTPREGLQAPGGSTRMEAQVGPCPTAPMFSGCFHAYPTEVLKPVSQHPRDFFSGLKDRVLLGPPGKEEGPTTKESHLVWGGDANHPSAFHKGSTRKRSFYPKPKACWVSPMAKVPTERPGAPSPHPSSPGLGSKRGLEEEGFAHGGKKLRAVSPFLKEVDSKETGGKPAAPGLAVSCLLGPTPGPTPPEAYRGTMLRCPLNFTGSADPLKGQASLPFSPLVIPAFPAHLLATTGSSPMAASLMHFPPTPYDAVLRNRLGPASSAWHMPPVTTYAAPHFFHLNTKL
Nature of the data set: EMSA.

B1: STAT3 3'UTR (1738-1765) stem-loop (structured_RNA)
RNA: UGCAGUGGCUUGUGUUCUGGCCACUGCA
Consider B1, for which the binding result with Arid5a R128A is listed as “no binding”; in the data set with Arid5a, “binds”.

B2: mutant stem-loop STAT3 3'UTR (1738-1765) (structured_RNA)
RNA: UGCACACCCUUGUGUUCUGGCCACUGCA
Turning to B2, the binding result in the data set with Arid5a is reported as “no binding”.

The record behind these values is article PMC4821647.
